Test: yeast display, Sf9 membrane polyspecificity reagent, FACS + sequencing; frameworks hold sequencing errors
Procedure, shortened: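 After 36–48 hours of galactose induction, yeast (Saccharomyces cerevisiae BJ5465) displaying a synthetic nanobody library were stained at 4 °C for 1 hour with 10% biotinylated, detergent-solubilized Sf9 membrane reagent. Streptavidin microbeads enriched the stained cells before FACS sorting into low and high (top ~1%) gates on anti-HA and streptavidin fluorescence. Each clone's polyreactivity label reflects its gate of origin.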

Row | Sequence | polyreactivity (PSR sort gate)
1 | QVQLAESGGGLVQAGGSLRLSCAASGGTIGVNAMGWYRQAPGKERELVARISRIGASTHYADSVKGRFTISRDNAKNTVYLMMNSLKPEDTAVYYCAKSNGTPGNFGYWGQGTQVTVSS | low polyreactivity
2 | QVQLVESGGGLVEAGGSLRLSCAASGRTFANNAMGWYRQAPGKERELVARISNSGSTNYADSVKGRFTISRDNANNTVYLQMNSLNPEDTAVYYCAARIVRLYSRYDYWGQGTQVTVSS | low polyreactivity
3 | QVQLVESGGGLVQAGGSLRLRCAASGRIFTRNDIGWYRQAPGKERQLVAAISHSGGSTYADSVKGSFTISRDNAKNTVFLQMNRLKPEDTEVYYCAADSPYGYYEGDYWGQGTQVTVSS | low polyreactivity
4 | QVQLVESGGGLVQAGGSLRLSCAASGFTFYYNAMGWYRQAPGKERELVSIRFRGGNTYYADSVKVRFTISRDNAKNTVYLQMNSLKPVDTAVYYCNADDRVSTYVDFDYWGQGTQVTVSS | low polyreactivity
5 | QVQLVESCGGLVQAGGSLRLSCAASGITIDYYAMGWYRQAPGKERELVAAISSVGNTNYADSVKGRFTISRDNAKNTVYLQMNSLKPEDTAVYYCAARAYGQRLYRVWSGYGYWGQGTQVTVSS | high polyreactivity
6 | QVQLVESGGGLVQAGGSLRLSCAASGNIFLYYAMGWYIPAPGKEREFVSDIDSSGASTYYADSVKGRFTISRDNAKNTVYLQMNSLKPEDTAVYYCAAEFHWWYAGYDYGYWGQGTQVTVSS | low polyreactivity
7 | QDQLVDSGGGLVQAGGRLRLSCAASGSTYRTYAMVRYRQAPGKERELVAAINSGGSTYYADSVKGRFTISRDNAKNTVYLQMNSLKPEDTAVYSCAREDYVSYRLLYYLFDYWGQGTQVTVSS | low polyreactivity
8 | QVQLVESGGGLVQAGGSLRLSCAASGSIFNVNTMGWYRQAPGKERELVAAISYSGGSTYYADSVKGRFTISRDTAKNTVYLQMNSLKPEDTAVYYCAAESYIEYYLKYDYWGQGTQVTVSS | low polyreactivity
9 | QVQLVESGGGLVQAGGSLRLSCAASGRTFNYYAMGWYRQAPGKERELVAAITSGSTTYYADSVKGRFTISRDNAKNTVYLQMNSLKPEDTAVYYCATAWRPADNSWGQGTQVTVSS | low polyreactivity
10 | QVQLVESGGGLFQAGGSLRLSCAPSGRISNKYAMGWYRQAPGKERELVAAISYSGGTTYYADSVKGRFTISRDNAKNTVYLQMNSLKPEDTAGYYCAREWTKGYGYYWGYYWGQGTQVTASS | low polyreactivity
11 | QVQLVESGGGLVQAGGSLRLSCAASGRIITRYAMGWYRQAPGKERELVAAISSGGSTYYADSVKGRFTISRDNAKNTVYLQMNSLKPEDTAVYYCARGWSGAYAGGYWGQGTQVTVSS | high polyreactivity
12 | QVQLVESGGGLVQAGGSLRLSCAASGSKFKRNAMVWYRQAPGKERELVASISSGGSTHYADSVNGRFTISRDNSKNTVYLEMNSLKPEDTAVYYCAATSIRWSVGSFRRDYWGQGTQVTVSS | low polyreactivity
13 | QVQLVESGGGLVQAGGSLRLSCAASGRTFWWNAMGWYRQAPGKERELVASISSGGSTNYADSVKGRFTISRDNAKKTVYLQMNSLKPEDTAVYYCARGYRWRGTVSRWSRYYQAHDYWGQGTQVTVSS | low polyreactivity
14 | QVQLVESGGGLVQAGGSLGLSCAASGRTFGPYAMGWYRQAPGKERELVAAISASGASTSYADSVKGRFTIARDNAKNTVYLQMNSLKPEDTAVYYCARSYYHRPFGYWGQGTQVTVSS | low polyreactivity
15 | QVQLVESGGGLVQAGASLRLSCADSGIIFQVYAMGWYRQAPGKERELVAAISDDGSTNYADSVKGRFTISRDNAKNTVYLQMNSLKPEDTAVYYCAKESWGRLYYRYDYWGQGTQVTVSS | low polyreactivity
16 | QVQLVESGGGLVQAGGSLRLSCAASGGTFFLYAMGWYRQAPGTERELVADISSGDSTNYADSVKGRFTISRDNAKNTVYLQMNSLKPEDTAVYYCAADGKLEYVNGYNLYYWGQGTQVTVSS | low polyreactivity
17 | QVQLVESGGGLVQAGGSLRLSCAASGLIFPRYAMGWYRQAPGKVSELVAAITWSGGSTFYADSVKGRFTISRDTAKNTVYLQMNSLKPEDTAVYYCAAQDASERTYGYDGYYYWGQGTQVTVSS | low polyreactivity
18 | QVQLVESGGGLVQAGGTLRLSCAASGRIFPAYVMGWYRQAPGKERELVATIDNGGGTYYADSVKGRFTISRDNAKNTVYLQMNSLKPEDTAVYYCARDRHVRWGLKMDYWGQGTQVTVSS | low polyreactivity
19 | QVQLVESGGGLVQAGGSLRLSCAASGRIFGYYAMGWYRQAPGKESELVATINSVGSTNYADSVKGRFTISRDNAKNTVYLQMNSLKPEDTAVYYCATDSAYTFFTYRLWRHGYWGQGTQVTVSS | low polyreactivity
20 | QVQLVESGGGLVQAGGSLRLSCAASGSIFKYNDMGWYRQAPGKERELVAAITSDSSTYYADSVKGRFTISRDNAKNTVYLQMNSLKPVDTAVYYCAADTTGFTTYAYWYDYWGQGTQVTVSS | low polyreactivity
21 | QVQLVESVGGLVQAGRSLRLSCAASGNTFLRYAMGWYRQAPGKERELVAAISRSGGSTYYADSVKGRFTISRDNAKNTVYLQMNSLKPEDTAVYYCAARRSSQPDKGYYYWGQGTQVTVSS | high polyreactivity
22 | QVQLVESGGGLVQAGGSLRLSCAASGRIFYIHAMGWYRQAPGKERELVAAITSNGGSTYYADSVKGRFTISRDNAKNTVYLQMNCLKPEDTAVYYCAARRYKVSRTSYGYGYWGQGTQVTVSS | high polyreactivity

Row | Sequence | polyreactivity (PSR sort gate)
23 | KVQLVESGGGLVQAGGSLRLSCAASGRIFKYYAMGWYRQAPGKERELVAAISARGGSTYYADSVKGRFTISRDNAKNTVYLQMNSLKPEDTAVYYCAAPYLTTQYERMYYWGQGTQVTVSS | high polyreactivity
24 | QVQLVESGGGLVQAGGSLRLSCAASGSTFAKYAMGWSRQAPGKEREFVAAITASGGRTFYADSVKGRFTISRDNAKNTVYLQMNSLKPEDSAVYYCAADVVPTWYGYNYDYWGQGTQVTVSS | high polyreactivity
25 | QVQLVESGGGLVQAGGSLRLSCAASGRIFGYYAMGWYRQAPGKERELVAAITINGGRTYYADSVKGRFTISRDNAKNTVYLQMNSLKPEDTAVYYCTATSRYNRLGYWGQGTLVTVSS | high polyreactivity
26 | QGQLVESGGGLVQAGASLSLTSDDYRTIVKTYAMGSYRPAPGKESEMVAAISWRGGSTYYADSVKGRITISRDNAKNTVYLQMNSMKPVDTAVYYCVAVRNFGTRTLWYRYGYWGQGSQVTVSS | high polyreactivity
27 | QVQLVQSGGGLVQAGGSLRLSCAGSGYILQINAMGWYRQAPGKERELVAAISISGGNTYYADSVKGRFTNSRDNAKNTVYLQMNSLKPEDSAVYYCAAYRFYSYLVRYGLLLAYYYWGQGTQVTVSS | low polyreactivity
28 | QVQLVESGGGLVQAGGSLRLSCAASGFTFYAYAMGWYRQAPGKERELVAVITGGGSTYYADSVKGRFTISRDNAKNTVYLQMNSLKPEDTAVYYCAATYRGWLVGNGVWYWYYYWGQGTQVTVSS | high polyreactivity
29 | QVQLVESGGGLVQAGGSLRLSCAASGFTFSFYTMGGYRQAPGTARELVAAISRNGGSTYYADSVKGRFTISRDNAKTTDYFQMNSLKPEDTAVYYCAARARGGDWGSGDYWGQGTQVTVSS | high polyreactivity
30 | QVQLVESGGGLVQAGGSLRLSCAASGNIFDRNAMGWYRHAPGKQRELVAAISRSGGRTYYADSVKGRFTISRDNAKNTVYLQMISLKPEDTGVYYCATTYGGTYEYDYWGQGTQVTVSS | high polyreactivity
31 | QVQLVESGGGLVQAGGSLRLSCAASGFIFIAYAMGWYRQAPGKERELVAAISKSGGNTYYADSVKGRFTISRDNAKNTVYLQMNSLKPEDTAVYYCATRPGYWRYEYWGQGTQVTVSS | high polyreactivity
32 | QVQLVESGGGLVQAGGSLRLSCAASGSIFYENTMGWYRQAPGKERELVASISGGGSTYADSVKGRFTISRDNAKHTVYLQMNSLKPEDTAVYYCNADSSTEYDYWGQGTQVTVSA | low polyreactivity
33 | QVQHVESGGGLVQAGGSLRLSCAASGRTLSFYAMGWYRQAPGKERELVAAINYSGGRTSYADSVKGRFTISRDNAKNTVYLQMNSLKPEDTAVYYCAKGVYPWGVYYWGQGTQVTVSS | low polyreactivity
34 | QVQLVESGGGLVQAGGSLRLSCAASGSTFTEYAMGWYRQAPGKERELVAAITNSGSSTNYEDSVKGRFTISRDNAKNTVYLQMNSLKPEDTAVYYCNASSYPWEYYYLYYGYDYWGQGTQVTVSS | low polyreactivity
35 | QVQLVESGGGLVQAGGSLRLSCAASGSIFNYYAMGWYRQAPGKEREFVAGITTSGGSTYYADSVKGRFTISRDNAKNTVCLQMNSLKPEDTAVYYCAAYDYISSTYFLDDYWGQGTQVTVSS | low polyreactivity
36 | QVQLVESGGGLVQAGGSLRLSCAASGFTFVRNAMGWYRQAPGKEREFVAAITWTGGSTSYADSVKGRFTISRDNAMITVYLQMNSLKPEDTAVYYCDAVGYGYGFEYWGQGTQVTVSA | high polyreactivity
37 | QVQLVESGGGLVQAGGSLSLSCAASGITLYWYAMRWYIQAPGKERELVATINWSGGSTYYADSVKGRFTISRDNAKNTVYLQMNSLKPEDTAVYYCNVDYSDEGMGYWGQGTQVTVSS | low polyreactivity
38 | QVQLVESGGGLVQAGGSLRLSCAASGGTFRFNAMGWYRQAPGKERELVAAISRGGSTNYADSVKGRFTISRDNAKNTVYLQMNSLKPEDTAVYYCAADTYHPRFWYDYWGQGTQVTVSS | low polyreactivity
39 | QVQLVESGGGLVQAGGSLRLSCAASGRTFYGYAMGWYRQAPGKERELVAAITRSGGSTYYADSVKGRFTISRDNAKNTVYLQMNSLKPEDTAVYYCAAGGQARHDNWGQGTQVTVSS | low polyreactivity
40 | QVQLVESVGGLVQAGGSLRLSCAASGSTFGIYTMGWYRQAPGKERELVAAISSRGGSTYYADSVKGRFTISRDNAKNTVYLQMNSLKPEDTAVYYCAAVGRSHSRPYTDEYWGQGTQVTVSS | high polyreactivity
41 | QVQLVESGGGLVQAGGSLRLSCAASGSTFPYYAMGWYRQAPGKEWDLVAAISASVGSTYYADSVKGRFTISRDNAKNTVYLQMNSLKPEDTAVYYCNRVRSSYVYVSRFDSWGQGNQVTVSS | high polyreactivity
42 | QVQLVESGGGLVQAGGSLRLSCAASGRTFRYYDMGWYRQSPGKERELVARISISGAGTYYADSVKVRFTISRDNAKNNVYLQMNSLKPEDTAVYYCAADLFWWQKTNSGGDYWGQGTQVTVSS | low polyreactivity
43 | QVQLVESGGGLVQAGGCLRLSCAASVRTFYYYAMGWYRQAPGKEMELVAAITSTGGSTYYADSVKGRFTISRDNAKNTVYLQMNSLKPEDTAVYYCNTDPYTTQWYTTWFEYWGQGTQVTVSS | low polyreactivity
